Assay results reported in US20240139329A1 (CALIFORNIA INSTITUTE OF TECHNOLOGY, published 2024).

Assays:
[1] = target: T1, human LRP6 extracellular domain (AA 20-1368) tagged with Fc (human IgG1) (human, UniProt O75581 20-1368); experiment: validated interaction (cell culture potency assay and/or SPR)
T1 construct: also called human LRP6-Fc; complete human LRP6 extracellular domain; not shown: human IgG1 Fc
T1 sequence: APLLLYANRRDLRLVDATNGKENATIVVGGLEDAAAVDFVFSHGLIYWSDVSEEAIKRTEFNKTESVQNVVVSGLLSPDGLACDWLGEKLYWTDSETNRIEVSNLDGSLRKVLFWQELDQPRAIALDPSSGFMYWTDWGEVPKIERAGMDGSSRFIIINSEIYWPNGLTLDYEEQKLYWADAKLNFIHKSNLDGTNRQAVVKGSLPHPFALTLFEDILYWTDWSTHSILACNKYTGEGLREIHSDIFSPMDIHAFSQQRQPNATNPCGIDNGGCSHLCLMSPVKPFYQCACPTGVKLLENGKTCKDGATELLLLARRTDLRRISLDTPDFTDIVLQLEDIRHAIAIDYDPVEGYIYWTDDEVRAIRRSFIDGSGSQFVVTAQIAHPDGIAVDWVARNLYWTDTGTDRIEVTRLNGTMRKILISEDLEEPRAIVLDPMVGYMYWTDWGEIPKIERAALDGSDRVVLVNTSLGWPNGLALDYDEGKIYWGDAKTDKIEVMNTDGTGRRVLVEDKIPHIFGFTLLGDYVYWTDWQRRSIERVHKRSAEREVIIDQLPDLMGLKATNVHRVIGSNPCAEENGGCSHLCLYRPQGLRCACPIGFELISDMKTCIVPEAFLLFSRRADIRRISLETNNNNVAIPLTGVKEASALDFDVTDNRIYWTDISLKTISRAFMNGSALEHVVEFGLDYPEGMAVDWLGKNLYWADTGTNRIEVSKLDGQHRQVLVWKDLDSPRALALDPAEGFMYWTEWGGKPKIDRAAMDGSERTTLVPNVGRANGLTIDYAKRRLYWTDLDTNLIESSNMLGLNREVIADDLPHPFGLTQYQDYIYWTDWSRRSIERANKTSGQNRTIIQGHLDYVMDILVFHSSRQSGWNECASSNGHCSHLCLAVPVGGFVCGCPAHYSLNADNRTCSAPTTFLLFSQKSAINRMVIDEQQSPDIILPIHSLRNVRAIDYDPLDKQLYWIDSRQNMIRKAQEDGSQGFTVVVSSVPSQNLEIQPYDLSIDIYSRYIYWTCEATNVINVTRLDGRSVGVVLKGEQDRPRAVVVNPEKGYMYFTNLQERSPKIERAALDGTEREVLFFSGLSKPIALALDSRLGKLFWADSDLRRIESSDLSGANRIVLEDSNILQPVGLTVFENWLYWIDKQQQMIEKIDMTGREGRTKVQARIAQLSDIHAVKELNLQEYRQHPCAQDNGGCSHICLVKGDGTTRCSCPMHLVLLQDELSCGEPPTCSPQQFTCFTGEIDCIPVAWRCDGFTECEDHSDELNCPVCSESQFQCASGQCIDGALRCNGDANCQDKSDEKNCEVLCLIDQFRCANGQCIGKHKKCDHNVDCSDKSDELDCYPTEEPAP

[2] = target: T2, Human Adeno-Associated Virus Receptor (AAVR) PKD2 domain (AA 401-498) tagged with 6×His (human, UniProt Q8IZA0 401-498); experiment: pull-down, His-tagged bait on Ni-NTA, AAV prey, Western blot (FIG. 21)
T2 construct: range 401-498; also called human AAVR PDK2 domain
T2 sequence: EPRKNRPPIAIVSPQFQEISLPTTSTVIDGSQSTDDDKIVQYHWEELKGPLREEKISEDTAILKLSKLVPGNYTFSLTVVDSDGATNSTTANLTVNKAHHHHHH

[3] = target: T3, mouse LRP6 extracellular domain (AA20-1366) tagged with 6×His tag (mouse, UniProt O88572 20-1366); experiment: as above
T3 construct: also called full length extracellular domain of mouse LRP6
T3 sequence: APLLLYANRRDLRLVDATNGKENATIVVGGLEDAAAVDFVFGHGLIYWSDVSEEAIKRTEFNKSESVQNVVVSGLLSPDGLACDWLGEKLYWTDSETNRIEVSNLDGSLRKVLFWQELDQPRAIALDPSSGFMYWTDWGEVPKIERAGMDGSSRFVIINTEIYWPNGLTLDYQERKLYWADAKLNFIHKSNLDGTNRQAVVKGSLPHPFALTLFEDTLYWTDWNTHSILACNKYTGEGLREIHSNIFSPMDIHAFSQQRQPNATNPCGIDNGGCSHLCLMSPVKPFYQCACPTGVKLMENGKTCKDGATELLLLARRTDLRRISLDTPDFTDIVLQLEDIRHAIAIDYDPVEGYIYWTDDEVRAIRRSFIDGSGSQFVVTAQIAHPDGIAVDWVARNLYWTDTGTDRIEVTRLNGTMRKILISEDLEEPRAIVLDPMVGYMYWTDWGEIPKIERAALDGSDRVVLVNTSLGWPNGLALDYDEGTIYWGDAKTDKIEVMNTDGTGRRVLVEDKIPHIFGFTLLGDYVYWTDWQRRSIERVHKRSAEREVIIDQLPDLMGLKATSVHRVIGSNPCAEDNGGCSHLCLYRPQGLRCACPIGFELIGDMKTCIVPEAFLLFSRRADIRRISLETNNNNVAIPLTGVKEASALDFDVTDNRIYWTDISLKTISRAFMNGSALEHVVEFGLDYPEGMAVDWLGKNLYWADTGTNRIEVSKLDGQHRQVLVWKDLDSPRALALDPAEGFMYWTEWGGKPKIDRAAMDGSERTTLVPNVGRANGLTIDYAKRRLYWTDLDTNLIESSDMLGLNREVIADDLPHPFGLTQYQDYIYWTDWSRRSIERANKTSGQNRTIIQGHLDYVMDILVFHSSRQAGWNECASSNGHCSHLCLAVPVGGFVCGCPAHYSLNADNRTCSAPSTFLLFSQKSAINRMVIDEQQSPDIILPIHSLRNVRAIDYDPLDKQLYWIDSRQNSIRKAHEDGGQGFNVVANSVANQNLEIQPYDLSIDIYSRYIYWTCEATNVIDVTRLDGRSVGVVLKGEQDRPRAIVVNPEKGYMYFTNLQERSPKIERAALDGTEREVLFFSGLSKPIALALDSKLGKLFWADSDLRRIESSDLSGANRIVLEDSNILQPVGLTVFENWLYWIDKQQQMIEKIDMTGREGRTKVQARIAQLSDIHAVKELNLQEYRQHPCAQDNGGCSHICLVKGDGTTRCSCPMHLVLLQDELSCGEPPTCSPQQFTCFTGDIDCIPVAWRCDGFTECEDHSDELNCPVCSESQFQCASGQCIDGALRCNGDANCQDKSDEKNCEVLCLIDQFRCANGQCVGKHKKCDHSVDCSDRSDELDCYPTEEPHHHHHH

Measured: binding result

B1: AAV.CAP-Mac (other)
chain: MAADGYLPDWLEDNLSEGIREWWALKPGAPQPKANQQHQDNARGLVLPGYKYLGPGNGLDKGEPVNAADAAALEHDKAYDQQLKAGDNPYLKYNHADAEFQERLKEDTSFGGNLGRAVFQAKKRLLEPLGLVEEAAKTAPGKKRPVEQSPQEPDSSAGIGKSGAQPAKKRLNFGQTGDTESVPDPQPIGEPPAAPSGVGSLTMASGGGAPVADNNEGADGVGSSSGNWHCDSQWLGDRVITTSTRTWALPTYNNHLYKQISNSTSGGSSNDNAYFGYSTPWGYFDFNRFHCHFSPRDWQRLINNNWGFRPKRLNFKLFNIQVKEVTDNNGVKTIANNLTSTVQVFTDSDYQLPYVLGSAHEGCLPPFPADVFMIPQYGYLTLNDGSQAVGRSSFYCLEYFPSQMLRTGNNFQFSYEFENVPFHSSYAHSQSLDRLMNPLIDQYLYYLSRTINGSGQNQQTLKFSVAGPSNMAVQGRNYIPGPSYRQQRVSTTVTQNNNSEFAWPGASSWALNGRNSLMNPGPAMASHKEGEDRFFPLSGSLIFGKQGTGRDNVDADKVMITNEEEIKTTNPVATESYGQVATNHQSAQLNTTKPIAQAQTGWVQNQGILPGMVWQDRDVYLQGPIWAKIPHTDGNFHPSPLMGGFGMKHPPPQILIKNTPVPADPPTAFNKDKLNSFITQYSTGQVSVEIEWELQKENSKRWNPEIQYTSNYYKSNNVEFAVNTEGVYSEPRPIGTRYLTRNL
notes: also called CAP-C1
binds: all assays above

B2: AAV9-X1.1 (other)
chain: MAADGYLPDWLEDNLSEGIREWWALKPGAPQPKANQQHQDNARGLVLPGYKYLGPGNGLDKGEPVNAADAAALEHDKAYDQQLKAGDNPYLKYNHADAEFQERLKEDTSFGGNLGRAVFQAKKRLLEPLGLVEEAAKTAPGKKRPVEQSPQEPDSSAGIGKSGAQPAKKRLNFGQTGDTESVPDPQPIGEPPAAPSGVGSLTMASGGGAPVADNNEGADGVGSSSGNWHCDSQWLGDRVITTSTRTWALPTYNNHLYKQISNSTSGGSSNDNAYFGYSTPWGYFDFNRFHCHFSPRDWQRLINNNWGFRPKRLNFKLFNIQVKEVTDNNGVKTIANNLTSTVQVFTDSDYQLPYVLGSAHEGCLPPFPADVFMIPQYGYLTLNDGSQAVGRSSFYCLEYFPSQMLRTGNNFQFSYEFENVPFHSSYAHSQSLDRLMNPLIDQYLYYLSRTIDGAATKNQTLKFSVAGPSNMAVQGRNYIPGPSYRQQRVSTTVTQNNNSEFAWPGASSWALNGRNSLMNPGPAMASHKEGEDRFFPLSGSLIFGKQGTGRDNVDADKVMITNEEEIKTTNPVATESYGQVATNHQSAQGNNTRSVAQAQTGWVQNQGILPGMVWQDRDVYLQGPIWAKIPHTDGNFHPSPLMGGFGMKHPPPQILIKNTPVPADPPTAFNKDKLNSFITQYSTGQVSVEIEWELQKENSKRWNPEIQYTSNYYKSNNVEFAVNTEGVYSEPRPIGTRYLTRNL
notes: also called AAV-X1.1; X1B10
binds: all assays above
